Measurements from article PMC5869385.

Target: Torpedo muscle-type α1_(2)β1γδ nicotinic acetylcholine receptor (Torpedo marmorata (endogenous in electric organ)) (UniProt P02711)
Experiment: radioligand binding

α-cobratoxin from Naja kaouthia (from UniProt P01391 1-71) (natural protein)
Ki: 397 pM
